From US20250215397A1, “TWO-DIMENSIONAL CULTURE METHOD HAVING CLEAR CHEMICAL COMPOSITION FOR CULTURING THREE-DIMENSIONAL INTESTINAL ORGANOID-DERIVED INTESTINAL STEM CELL AGGREGATE” (KOREA RESEARCH INSTITUTE OF BIOSCIENCE AND BIOTECHNOLOGY, priority 2022, published 2025)

Assays:
Format in all cases: cell-based, human
[1] = test system: two-dimensional intestinal stem cell population; assay: Subculture of two-dimensional intestinal stem cells, engraftment / cell number; conditions: factor removed from culture medium, subculture; FIG. 12
Description: (§1) The three-dimensional intestinal organoids were isolated from a Matrigel dome and the remaining three-dimensional intestinal organoids were removed as much as possible by pipetting. The separated organoids were placed in 1 ml of 0.25% trypsin-EDTA (TE, Invitrogen) and incubated at 37° C. a water bath for about 5 minutes. Then, pipetting was performed less than five times so that the organoids were allowed to be isolated into single cells and small clumps, and a basal medium was added so that the total volume thereof was 10 ml. The cells fed into a centrifuge were placed on culture dishes coated with feeder cells or 1% of Matrigel (Corning). […]
(§2) The two-dimensional intestinal stem cell population was plated on a culture dish coated with 1% of Matrigel and then cultured for 2 to 7 days. […] After centrifugation, a medium was added to isolate the cells into single cells, and then the number of cells was measured using CountessIII cell counter (Thermo Scientific. Inc.).

[2] = test system: two-dimensional intestinal stem cell population; assay: Two-dimensional culture of intestinal stem cell population with removal of medium factors or inhibitor treatment; conditions: presence or absence of each factor; FIGS. 7-10
Description: as §1
To measure viability of a two-dimensional intestinal stem cell population cultured in a culture dish coated with 1% of Matrigel, a kit (LIVE/DEAD Viability/Cytotoxicity Kit, Invitrogen) capable of distinguishing and staining surviving cells and dead cells was used. […] The stained cells were observed through a fluorescence microscope (Olympus).
as §2, with “Inc.). […]” for “Inc.).”

[3] = test system: two-dimensional intestinal stem cell population; assay: Differentiation into 2.5-dimensional intestinal epithelial cells by air-liquid interface culture, medium factor screening; conditions: minimal medium composition; FIG. 24
Description: The intestinal stem cells grown to a density of 70 to 80% were washed 1-2 times with PBS, and then treated with TE in an incubator at 37° C. for 5 to 7 minutes. The intestinal stem cells isolated into single cells were collected and then diluted using the hIO medium. The cells were gathered by centrifugation, supernatant was removed, the intestinal stem cell culture medium was added thereto and sufficiently mixed, and then the number of cells was measured using Countess III cell counter (Thermo Scientific. Inc.). 2.5-3.5×10^5 cells were placed in an insert of 12-transwell plate (Corning) coated with 1% of Matrigel, and cultured in an incubator. After the cell density reached 100%, the culture medium of an upper layer was completely removed, and the culture medium of a lower layer was replaced with a differentiation medium (2 mM of L-glutamine, 1% of Penicillin-Streptomycin, and 15 mM of a HEPES buffer in Advanced DMEM F12) comprising 200 ng/ml of R-spondin 1 (R&D Systems), 100 ng/ml of EGF (R&D Systems), 2.5 µM of Prostaglandin E2 (Sigma-aldrich), 10 μM of SB202190 (Sigma-aldrich), and 10 mM of nicotinamide (Sigma-aldrich). Thereafter, once every 2 days, a surface of the upper layer was washed with the PBS or hIO medium, and the lower layer was replaced with a new differentiation medium and cultured for 8 to 12 days.

| Molecule | need for long-term subculturing [1] | role of essential culture medium factor (stemness, proliferation, death) [2] | effect on differentiation into intestinal epithelial cells [3] |
| --- | --- | --- | --- |
| Noggin: BMP inhibitor (protein, UniProt Q13253 28-232, looked up) Noggin: QHYLHIRPAPSDNLPLVDLIEHPDPIFDPKEKDLNETLLRSLLGGHYDPGFMATSPPEDRPGGGGGAAGGAEDLAELDQLLRQRPSGAMPSEIKGLEFSEGLAQGKKQRLSKKLRRKLQMWLWSQTFCPVLYAWNDLGSRFWPRYVKVGSCFSKRSCSVPEGMVCKPSKSVHLTVLRWRCQRRGGQRCGWIPIQYPIISECKCSC | required to more efficiently perform long-term culturing |  |  |
| WNT3A: human recombinant WNT3A, Wnt signaling pathway activator (protein, UniProt P56704 19-352, looked up) Protein Wnt-3a: SYPIWWSLAVGPQYSSLGSQPILCASIPGLVPKQLRFCRNYVEIMPSVAEGIKIGIQECQHQFRGRRWNCTTVHDSLAIFGPVLDKATRESAFVHAIASAGVAFAVTRSCAEGTAAICGCSSRHQGSPGKGWKWGGCSEDIEFGGMVSREFADARENRPDARSAMNRHNNEAGRQAIASHMHLKCKCHGLSGSCEVKTCWWSQPDFRAIGDFLKDKYDSASEMVVEKHRESRGWVETLRPRYTYFKVPTERDLVYYEASPNFCEPNPETGSFGTRDRTCNVSSHGIDGCDLLCCGRGHNARAERRREKCRCVFHWCCYVSCQECTRVYDVHTCK | required to more efficiently perform long-term culturing |  |  |
| R-spondin 1: WNT/R-spondin activator (protein, UniProt Q2MKA7 21-263, looked up) R-spondin-1: SRGIKGKRQRRISAEGSQACAKGCELCSEVNGCLKCSPKLFILLERNDIRQVGVCLPSCPPGYFDARNPDMNKCIKCKIEHCEACFSHNFCTKCKEGLYLHKGRCYPACPEGSSAANGTMECSSPAQCEMSEWSPWGPCSKKQQLCGFRRGSEERTRRVLHAPVGDHAACSDTKETRRCTVRRVPCPEGQKRRKGGQGRRENANRNLARKESKEAGAGSRRRKGQQQQQQQGTVGPLTSAGPA |  | modulate stemness and proliferation of two-dimensional intestinal stem cells | excellent effect on differentiation into intestinal epithelial cells |
